Measurements taken from patent US7718626B2, “ErbB3 binding protein compositions and methods of use” (University of Maryland, Baltimore, priority 2005, dated 2010).

Legend:
Type in all cases: cell-based, human
[1] = test system: androgen-responsive genes in LNCaP cells; experiment: Microarray gene expression profiling of LNCaP cells stably transfected with ebp1; settings: ebp1-overexpressing LNCaP cells vs controls
Method: Microarray Analysis: First and second strand cDNA were synthesized from 5-15 μg of total RNA at Genome Explorations (Nashville, Tenn.) using the SuperScript Double-Stranded cDNA Synthesis Kit (Gibco Life Technologies, Gaithersburg, Md.) and an oligo-dT24-T7 (5′-GGCCAGTGAATTGTAATACGACTCACTATAGGGAGGCGG-3′) (SEQ ID NO: 3) primer according to the manufacturer's instructions. cRNA was synthesized labeled with biotinylated UTP and CTP by in vitro transcription using the T7 promoter-coupled, double-stranded cDNA as template and the T7 RNA Transcript Labeling Kit (ENZO Diagnostics Inc., Farmingdale, N.Y.). The fragmented cRNA was hybridized for U133A oligonucleotide arrays (Affymetrix, Santa Clara, Calif.) containing ˜33,000 full-length annotated genes, together with additional probe sets designed to represent EST sequences. The arrays were then stained with phycoerythrein-conjugated streptavidin (Molecular Probes, Eugene, Oreg.), and the fluorescence intensities were determined using a laser confocal scanner (Hewlett-Packard, Palo Alto, Calif.). The scanned images were analyzed using Microarray software (Affymetrix). Sample loading and variations in staining were standardized by scaling the average of the fluorescent intensities of all genes on an array to constant target intensity for all arrays used. The signal intensity for each gene was calculated as the average intensity difference, represented by [E(PM−MM)/(number of probe pairs)], where PM and MM denote perfect-match and mismatch probes. Data analysis was conducted using Microarray Suite 5.0 (Affymetrix) following user guidelines. Only genes with a minimum expression level of 500 were included in this analysis. […] AR-regulated genes include the Androgen Receptor (AR), PSA (kallikrein 3), Kallikrein 2, POV-1, TMPRSS2, and prostate-derived factor.
Ectopic expression of Ebp1 downregulates androgen-regulated genes: Gene expression profiling of LNCaP cells stably transfected with ebp1 was used to determine the range of androgen-dependent genes affected by Ebp1 overexpression. These cells overexpress Ebp1 protein between two- and three-fold (Zhang et al., 2002, Repression of Androgen Receptor Mediated Transcription by the ErbB-3 Binding Protein Ebp1, Oncogene, 21: 5609-5618). Changes in gene expression were measured using microarray analysis of 33,000 transcripts on the Affymetrix U133A chip. To compile a list of differentially regulated genes, only those genes that were activated or repressed at least 3-fold (p <0.05, 500 minimum expression units) were included. […] Forty-one genes were induced and 126 were repressed. Seventy-two of these genes have HUGO approved names. […] These include the Androgen Receptor (3.7 fold decrease), PSA (3.7 fold decrease) as previously reported (Zhang et al., 2002, Repression of Androgen Receptor Mediated Transcription by the ErbB-3 Binding Protein Ebp1, Oncogene, 21: 5609-5618), Kallikrein 2 (3.2 fold decrease), POV-1 (5.0 fold decrease), TMPRSS2 (3.2 fold decrease), and prostate-derived factor (3.2 fold decrease). The Kallikrein 2 gene is regulated by AR, predominantly expressed in prostate tissue, secreted by LNCaP cells, and 78% homologous to PSA. […] The TMPRSS2 gene is androgen-regulated and also highly expressed in prostate and prostate cancer (Afar et al., 2001, Catalytic Cleavage of the Androgen-Regulated TMPRSS2 Protease Results in its Secretion by Prostate and Prostate Cancer Epithelia, Cancer Res., 61:1686-1692).

[2] = test system: AR-regulated gene mRNA in LNCaP cells; experiment: Real-time quantitative reverse-transcription PCR of LNCaP ebp1 transfectants
Method: Real-Time Quantitative Reverse-Transcription PCR: The method of […] et al. (Nakanishi et al., 2003, Quantitative Analysis of Breast Cancer Resistance Protein and Cellular Resistance to Flavopiridol in Acute Leukemia Patients, Clin. Cancer Res., 9: 3320-3328) was used as previously described. […] Real-time quantitative RT-PCR was then performed on the LightCycler (Roche, Indianapolis, Ind.) platform to determine the relative mRNA levels of Ebp1, AR, kallikrein-2 and POV-1. The following forward and reverse primers were selected using Primer Express software and synthesized by Core Laboratory of University of Maryland School of Medicine: Ebp1, sense: […] [NT] ID NO: 6) and antisense: 5° […] ID NO: 7), Kallikrein-2, sense: [NT] ID NO: 8) and antisense: [NT] ID NO: 9), POV-1, sense: [NT] ID NO: 10) and antisense: [NT] ID NO: 11), Actin, sense: [NT] ID NO: 12) and antisense […] ID NO: 13). An SRBR Green PCR Kit was used (Applied Biosystems, Foster City, Calif.), and the analyses were performed in duplicate or triplicate in a total volume of 15 μl including 0.9 μl of 25 mM MgCl2, 1.5 μl SYBR Green I, 0.3 μl Enzyme Mix, 0.75 μl of each primer (50 ng/μl), and 2 μl of cDNA synthesized with random hexamers. Target mRNA values were normalized using actin mRNA as an internal control. The relative quantitation of gene expression was performed using the comparative ΔΔ Ct (threshold method) using β-actin as an internal control ([…] et al., 2002, The Nonsteroidal Anti-Inflammatory Drug Sulindac Causes Down-Regulation of Signal Transducer and Activator of Transcription 3 in Human Oral Squamous Cell Carcinoma Cells, Cancer Research, 62:1004-1007). The results of the microarray analysis were validated using real-time quantitative reverse-transcription PCR, Western blot, and ELISA methods. […] The expression of POV-1 mRNA and protein were each decreased about two-fold. PSA secretion in the conditioned media of ebp1 and vector control cells was assessed by ELISA. […] Finally, […]-2 mRNA expression was decreased approximately 40%.

LNCaP cells = experiment: Growth in steroid-reduced medium with DHT and/or bicalutamide; settings: ebp1 transfectants (vector controls approximately 70%)
Method: Cell Growth Assays: To measure growth in complete media, cells (2×10^4) were seeded in triplicate in individual wells of 12-well tissue culture plates in RPMI-1640 with 10% FBS and cultured for the indicated number of days. Cells were trypsinized, stained with Trypan Blue (0.4%), and counted in a hemacytometer. […] Colonies were counted after 10 days of incubation. For studies assessing the effect of dihydrotestosterone (DHT) on cell growth, cells (2×10^4) were plated in 12-well plates in complete media. After a 24-hour attachment period, the medium was replaced with steroid-free medium [phenol red-free RPMI 1640 and 5% charcoal-stripped FBS (Sigma)] for 48 hours. The final concentration of testosterone in the steroid-reduced media was less than 5 pM. After 48 hours of steroid depletion, cells were re-fed with fresh steroid-reduced medium with or without the indicated concentrations of DHT and/or bicalutamide (10 μM), and total cell numbers were assessed 7 days later.

B1: Ebp1: ErbB3 binding protein (SEQ ID NO: 2), tested by stable ectopic expression (ebp1 transfection) in LNCaP cells (protein)
chain: MSGEDEQQEQTIAEDLVVTKYKMGGDIANRVLRSLVEASSSGVSVLSLCEKGDAMIMEETGKIFKKEKEMKKGIAFPTSISVNNCVCHFSPLKSDQDYILKEGDLVKIDLGVHVDGFIANVAHTFVVDVAQGTQVTGRKADVIKAAHLCAEAALRLVKPGNQNTQVTEAWNKVAHSFNCTPIEGMLSHQLKQHVIDGEKTIIQNPTDQQKKDHEKAEFEVHEVYAVDVLVSSGEGKAKDAGQRTTIYKRDPSKQYGLKMKTSRAFFSEVERRFDAMPFTLRAFEDEKKARMGVVECAKHELLQPFNVLYEKEGEFVAQFKFTVLLMPNGPMRITSGPFEPDLYKSEMEVQDAELKALLQSSASRKTQKKKKKKASKTAENPTSGETLEENEAGD
modifications: Homo Sapien
- Androgen Receptor expression, fold decrease [1]: 3.7 fold decrease
- Kallikrein 2 expression, fold decrease [1]: 3.2 fold decrease
- POV-1 expression, fold decrease [1]: 5.0 fold decrease
- PSA expression, fold decrease [1]: 3.7 fold decrease
- TMPRSS2 expression, fold decrease [1]: 3.2 fold decrease
- prostate-derived factor expression, fold decrease [1]: 3.2 fold decrease
- POV-1 mRNA decrease [2]: about two-fold
- kallikirein-2 mRNA expression decrease [2]: approximately 40%
- AR mRNA down-regulation ([2]; real-time PCR): more than 2 fold
- growth inhibition by the withdrawal of androgens (LNCaP cells): 60%
